Measured values published in the supplement of paper PMC11316812.
± gives the standard deviation of the averaged measurements.

How the values were obtained:
[1] = test system: MCF7; test: percentage of EdU-negative (G0-arrested) nuclei per well, 72 h; higher = more G0 arrest; conditions: reference: sequence is the full UniProt precursor, the tested protein was the secreted form or ectodomain
[2] = test system: hTERT-HMEC; test: as above; conditions: reference: sequence is the full UniProt precursor, the tested protein was the secreted form or ectodomain
[3] = protein concentration 0.0174286 µM
[4] = protein concentration 0.174286 µM
[5] = protein concentration 0.0225 µM
[6] = protein concentration 0.0257143 µM
[7] = protein concentration 0.257143 µM
[8] = protein concentration 0.0305714 µM
[9] = protein concentration 0.305714 µM
[10] = protein concentration 0.0183225 µM
[11] = protein concentration 0.183225 µM
[12] = protein concentration 0.0261 µM
[13] = protein concentration 0.0284075 µM
[14] = protein concentration 0.284075 µM
[15] = protein concentration 0.03125 µM
[16] = protein concentration 0.3125 µM
[17] = protein concentration 0.01503 µM
[18] = protein concentration 0.1503 µM
[19] = protein concentration 0.0111429 µM
[20] = protein concentration 0.111429 µM
[21] = protein concentration 0.019635 µM
[22] = protein concentration 0.19635 µM
[23] = protein concentration 0.0357143 µM
[24] = protein concentration 0.357143 µM
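Also: secreted proteins added to cultured cells, EdU pulse at the end, nuclei found by Hoechst imaging, EdU status from nuclear versus surrounding ring intensity ratio, PBS as neutral control.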

Chain of Q9ULB1 (chain, as listed by the source): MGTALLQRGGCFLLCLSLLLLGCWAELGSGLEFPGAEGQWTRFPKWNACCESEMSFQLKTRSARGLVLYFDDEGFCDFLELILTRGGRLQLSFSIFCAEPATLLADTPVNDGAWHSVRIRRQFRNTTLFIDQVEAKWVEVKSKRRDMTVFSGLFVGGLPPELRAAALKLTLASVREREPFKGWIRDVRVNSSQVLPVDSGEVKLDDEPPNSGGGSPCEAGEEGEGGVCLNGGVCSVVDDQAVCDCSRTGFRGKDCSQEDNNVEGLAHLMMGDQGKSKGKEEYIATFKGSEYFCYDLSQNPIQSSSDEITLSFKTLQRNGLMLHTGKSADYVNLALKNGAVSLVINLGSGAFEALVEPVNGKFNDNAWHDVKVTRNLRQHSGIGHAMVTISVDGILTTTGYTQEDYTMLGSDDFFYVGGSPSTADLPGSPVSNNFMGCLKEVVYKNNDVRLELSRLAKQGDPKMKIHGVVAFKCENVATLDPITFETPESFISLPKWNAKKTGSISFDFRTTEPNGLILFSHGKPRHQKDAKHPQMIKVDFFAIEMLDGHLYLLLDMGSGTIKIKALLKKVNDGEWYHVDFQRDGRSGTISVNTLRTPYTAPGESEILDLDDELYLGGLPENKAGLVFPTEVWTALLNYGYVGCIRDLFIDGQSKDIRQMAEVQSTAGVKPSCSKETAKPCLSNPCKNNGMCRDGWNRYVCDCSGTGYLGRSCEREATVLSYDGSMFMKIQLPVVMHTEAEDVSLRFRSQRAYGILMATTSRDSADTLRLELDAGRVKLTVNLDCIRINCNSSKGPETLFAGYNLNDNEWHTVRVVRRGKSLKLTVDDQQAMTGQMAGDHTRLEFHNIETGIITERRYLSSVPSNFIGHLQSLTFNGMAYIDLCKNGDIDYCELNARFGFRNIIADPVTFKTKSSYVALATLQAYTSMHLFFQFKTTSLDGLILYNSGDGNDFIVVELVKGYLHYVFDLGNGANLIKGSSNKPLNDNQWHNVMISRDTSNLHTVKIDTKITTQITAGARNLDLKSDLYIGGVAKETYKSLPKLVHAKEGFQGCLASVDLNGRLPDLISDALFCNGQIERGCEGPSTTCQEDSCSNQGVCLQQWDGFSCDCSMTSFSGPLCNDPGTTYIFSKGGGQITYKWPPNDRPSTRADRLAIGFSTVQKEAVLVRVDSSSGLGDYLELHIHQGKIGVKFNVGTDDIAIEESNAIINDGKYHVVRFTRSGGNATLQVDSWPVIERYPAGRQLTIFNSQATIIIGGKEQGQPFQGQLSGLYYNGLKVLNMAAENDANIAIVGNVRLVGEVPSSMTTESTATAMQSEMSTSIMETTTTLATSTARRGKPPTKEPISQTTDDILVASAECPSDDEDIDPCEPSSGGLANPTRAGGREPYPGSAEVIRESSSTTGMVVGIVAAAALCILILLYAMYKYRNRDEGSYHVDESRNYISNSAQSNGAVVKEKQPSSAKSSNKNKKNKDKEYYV

Substance: MGWLPLLLLLTQCLGVPGQRSPLNDFQVLRGTELQHLLHAVVPGPWQEDVADAEECAGRCGPLMDCRAFHYNVSSHGCQLLPWTQHSPHTRLRRSGRCDLFQKKDYVRTCIMNNGVGYRGTMATTVGGLPCQAWSHKFPNDHKYTPTLRNGLEENFCRNPDGDPGGPWCYTTDPAVRFQSCGIKSCREAACVWCNGEEYRGAVDRTESGRECQRWDLQHPHQHPFEPGKFLDQGLDDNYCRNPDGSERPWCYTTDPQIEREFCDLPRCGSEAQPRQEATTVSCFRGKGEGYRGTANTTTAGVPCQRWDAQIPHQHRFTPEKYACKDLRENFCRNPDGSEAPWCFTLRPGMRAAFCYQIRRCTDDVRPQDCYHGAGEQYRGTVSKTRKGVQCQRWSAETPHKPQFTFTSEPHAQLEENFCRNPDGDSHGPWCYTMDPRTPFDYCALRRCADDQPPSILDPPDQVQFEKCGKRVDRLDQRRSKLRVVGGHPGNSPWTVSLRNRQGQHFCGGSLVKEQWILTARQCFSSCHMPLTGYEVWLGTLFQNPQHGEPSLQRVPVAKMVCGPSGSQLVLLKLERSVTLNQRVALICLPPEWYVVPPGTKCEIAGWGETKGTGNDTVLNVALLNVISNQECNIKHRGRVRESEMCTEGLLAPVGACEGDYGGPLACFTHNCWVLEGIIIPNRVCARSRWPAVFTRVSVFVDWIHKVMRLG [G3XAK1]
- percentage of EdU-negative [1, 3]: 22.6 ± 1.9%
- percentage of EdU-negative [1, 4]: 27.79 ± 0.11%
- percentage of EdU-negative [2, 3]: 4.79 ± 0.57%
- percentage of EdU-negative [2, 4]: 5.55 ± 0.076%

Substance: MEIPVPVQPSWLRRASAPLPGLSAPGRLFDQRFGEGLLEAELAALCPTTLAPYYLRAPSVALPVAQVPTDPGHFSVLLDVKHFSPEEIAVKVVGEHVEVHARHEERPDEHGFVAREFHRRYRLPPGVDPAAVTSALSPEGVLSIQAAPASAQAPPPAAAK
- percentage of EdU-negative [1, 5]: 27 ± 0.81%
- percentage of EdU-negative ([1]; protein concentration 0.225 µM): 25.6 ± 1.1%
- percentage of EdU-negative [2, 5]: 4.93 ± 0.29%
- percentage of EdU-negative ([2]; protein concentration 0.225 µM): 5.53 ± 0.95%

Substance: MRTQSLLLLGALLAVGSQLPAVFGRKKGEKSGGCPPDDGPCLLSVPDQCVEDSQCPLTRKCCYRACFRQCVPRVSVKLGSCPEDQLRCLSPMNHLCHKDSDCSGKKRCCHSACGRDCRDPARGTAPGCPGQANSDLGSVALHLSWGPTERVHDGRPGALPAGQHYLYQRWFQPSDNHWPADTSLQPIHPWFLLLGVKVHSLSSEEGLCITPVLCTTAIRASHPS [Q8TCV5]
- percentage of EdU-negative [1, 6]: 23.5 ± 0.78%
- percentage of EdU-negative [1, 7]: 28.7 ± 0.3%
- percentage of EdU-negative [2, 6]: 5.766 ± 0.04%
- percentage of EdU-negative [2, 7]: 5.25 ± 1.3%

Substance: MKHSLNALLIFLIITSAWGGSKGPLDQLEKGGETAQSADPQWEQLNNKNLSMPLLPADFHKENTVTNDWIPEGEEDDDYLDLEKIFSEDDDYIDIVDSLSVSPTDSDVSAGNILQLFHGKSRIQRLNILNAKFAFNLYRVLKDQVNTFDNIFIAPVGISTAMGMISLGLKGETHEQVHSILHFKDFVNASSKYEITTIHNLFRKLTHRLFRRNFGYTLRSVNDLYIQKQFPILLDFKTKVREYYFAEAQIADFSDPAFISKTNNHIMKLTKGLIKDALENIDPATQMMILNCIYFKGSWVNKFPVEMTHNHNFRLNEREVVKVSMMQTKGNFLAANDQELDCDILQLEYVGGISMLIVVPHKMSGMKTLEAQLTPRVVERWQKSMTNRTREVLLPKFKLEKNYNLVESLKLMGIRMLFDKNGNMAGISDQRIAIDLFKHQGTITVNEEGTQATTVTTVGFMPLSTQVRFTVDRPFLFLIYEHRTSCLLFMGRVANPSRS
- percentage of EdU-negative [1, 8]: 27.6 ± 0.28%
- percentage of EdU-negative [1, 9]: 30 ± 1.5%
- percentage of EdU-negative [2, 8]: 6.41 ± 0.77%
- percentage of EdU-negative [2, 9]: 22.5 ± 9.3%

Substance: MVMRPLWSLLLWEALLPITVTGAQVLSKVGGSVLLVAARPPGFQVREAIWRSLWPSEELLATFFRGSLETLYHSRFLGRAQLHSNLSLELGPLESGDSGNFSVLMVDTRGQPWTQTLQLKVYDAVPRPVVQVFIAVERDAQPSKTCQVFLSCWAPNISEITYSWRRETTMDFGMEPHSLFTDGQVLSISLGPGDRDVAYSCIVSNPVSWDLATVTPWDSCHHEAAPGKASYKDVLLVVVPVSLLLMLVTLFSAWHWCPCSGKKKKDVHADRVGPETENPLVQDLP [Q9P0V8]
- percentage of EdU-negative [1, 5]: 34.5 ± 7.9%
- percentage of EdU-negative ([1]; protein concentration 0.225 µM): 28.8 ± 0.29%
- percentage of EdU-negative [2, 5]: 7.18 ± 1.4%
- percentage of EdU-negative ([2]; protein concentration 0.225 µM): 4 ± 0.28%

Substance: MKALIVLGLVLLSVTVQGKVFERCELARTLKRLGMDGYRGISLANWMCLAKWESGYNTRATNYNAGDRSTDYGIFQINSRYWCNDGKTPGAVNACHLSCSALLQDNIADAVACAKRVVRDPQGIRAWVAWRNRCQNRDVRQYVQGCGV
- percentage of EdU-negative [1, 10]: 25.9 ± 0.84%
- percentage of EdU-negative [1, 11]: 24.489 ± 0.011%
- percentage of EdU-negative [2, 10]: 5.192 ± 0.011%
- percentage of EdU-negative [2, 11]: 4.83 ± 0.071%

Substance: MRAPLLPPAPVVLSLLILGSGHYAAGLDLNDTYSGKREPFSGDHSADGFEVTSRSEMSSGSEISPVSEMPSSSEPSSGADYDYSEEYDNEPQIPGYIVDDSVRVEQVVKPPQNKTESENTSDKPKRKKKGGKNGKNRRNRKKKNPCNAEFQNFCIHGECKYIEHLEAVTCKCQQEYFGERCGEKSMKTHSMIDSSLSKIALAAIAAFMSAVILTAVAVITVQLRRQYVRKYEGEAEERKKLRQENGNVHAIA
- percentage of EdU-negative [1, 12]: 26.1 ± 0.68%
- percentage of EdU-negative ([1]; protein concentration 0.261 µM): 25.9 ± 1.5%
- percentage of EdU-negative [2, 12]: 5.2 ± 0.8%
- percentage of EdU-negative ([2]; protein concentration 0.261 µM): 5.0893 ± 0.0048%

Substance: MRVSGVLRLLALIFAIVTTWMFIRSYMSFSMKTIRLPRWLAASPTKEIQVKKYKCGLIKPCPANYFAFKICSGAANVVGPTMCFEDRMIMSPVKNNVGRGLNIALVNGTTGAVLGQKAFDMYSGDVMHLVKFLKEIPGGALVLVASYDDPGTKMNDESRKLFSDLGSSYAKQLGFRDSWVFIGAKDLRGKSPFEQFLKNSPDTNKYEGWPELLEMEGCMPPKPF [Q96BQ1]
- percentage of EdU-negative [1, 13]: 27.2 ± 0.94%
- percentage of EdU-negative [1, 14]: 26.6 ± 1.5%
- percentage of EdU-negative [2, 13]: 5 ± 0.84%
- percentage of EdU-negative [2, 14]: 6.345 ± 0.041%

Substance: MNCVCRLVLVVLSLWPDTAVAPGPPPGPPRVSPDPRAELDSTVLLTRSLLADTRQLAAQLRDKFPADGDHNLDSLPTLAMSAGALGALQLPGVLTRLRADLLSYLRHVQWLRRAGGSSLKTLEPELGTLQARLDRLLRRLQLLMSRLALPQPPPDPPAPPLAPPSSAWGGIRAAHAILGGLHLTLDWAVRGLLLLKTRL
- percentage of EdU-negative [1, 15]: 26.7 ± 0.82%
- percentage of EdU-negative [1, 16]: 25.4 ± 0.86%
- percentage of EdU-negative [2, 15]: 4.51 ± 0.15%
- percentage of EdU-negative [2, 16]: 6.32 ± 0.64%

Substance: MLPCASCLPGSLLLWALLLLLLGSASPQDSEEPDSYTECTDGYEWDPDSQHCRDVNECLTIPEACKGEMKCINHYGGYLCLPRSAAVINDLHGEGPPPPVPPAQHPNPCPPGYEPDDQDSCVDVDECAQALHDCRPSQDCHNLPGSYQCTCPDGYRKIGPECVDIDECRYRYCQHRCVNLPGSFRCQCEPGFQLGPNNRSCVDVNECDMGAPCEQRCFNSYGTFLCRCHQGYELHRDGFSCSDIDECSYSSYLCQYRCINEPGRFSCHCPQGYQLLATRLCQDIDECESGAHQCSEAQTCVNFHGGYRCVDTNRCVEPYIQVSENRCLCPASNPLCREQPSSIVHRYMTITSERSVPADVFQIQATSVYPGAYNAFQIRAGNSQGDFYIRQINNVSAMLVLARPVTGPREYVLDLEMVTMNSLMSYRASSVLRLTVFVGAYTF
- percentage of EdU-negative [1, 17]: 23.73 ± 0.068%
- percentage of EdU-negative [1, 18]: 33 ± 1.2%
- percentage of EdU-negative [2, 17]: 4.54 ± 0.11%
- percentage of EdU-negative [2, 18]: 7.23 ± 0.73%

Substance: MRRLLLVTSLVVVLLWEAGAVPAPKVPIKMQVKHWPSEQDPEKAWGARVVEPPEKDDQLVVLFPVQKPKLLTTEEKPRGQGRGPILPGTKAWMETEDTLGHVLSPEPDHDSLYHPPPEEDQGEERPRLWVMPNHQVLLGPEEDQDHIYHPQ [Q96NZ9]
- percentage of EdU-negative ([1]; protein concentration 0.013 µM): 23.14 ± 0.14%
- percentage of EdU-negative ([1]; protein concentration 0.13 µM): 27.38 ± 0.25%
- percentage of EdU-negative ([2]; protein concentration 0.013 µM): 4.69 ± 0.15%
- percentage of EdU-negative ([2]; protein concentration 0.13 µM): 5.48 ± 0.53%

Substance: Q9ULB1
- percentage of EdU-negative [1, 19]: 25.5 ± 2.5%
- percentage of EdU-negative [1, 20]: 26.3 ± 2.4%
- percentage of EdU-negative [2, 19]: 5.3 ± 0.36%
- percentage of EdU-negative [2, 20]: 9.04 ± 0.11%

Substance: MGILSFLPVLATESDWADCKSPQPWGHMLLWTAVLFLAPVAGTPAAPPKAVLKLEPQWINVLQEDSVTLTCRGTHSPESDSIQWFHNGNLIPTHTQPSYRFKANNNDSGEYTCQTGQTSLSDPVHLTVLSEWLVLQTPHLEFQEGETIVLRCHSWKDKPLVKVTFFQNGKSKKFSRSDPNFSIPQANHSHSGDYHCTGNIGYTLYSSKPVTITVQAPSSSPMGIIVAVVTGIAVAAIVAAVVALIYCRKKRISALPGYPECREMGETLPEKPANPTNPDEADKVGAENTITYSLLMHPDALEEPDDQNRI
- percentage of EdU-negative [1, 21]: 25 ± 1.1%
- percentage of EdU-negative [1, 22]: 25.9 ± 1.6%
- percentage of EdU-negative [2, 21]: 4.58 ± 0.074%
- percentage of EdU-negative [2, 22]: 5.06 ± 0.42%

Substance: MQLTRCCFVFLVQGSLYLVICGQDDGPPGSEDPERDDHEGQPRPRVPRKRGHISPKSRPMANSTLLGLLAPPGEAWGILGQPPNRPNHSPPPSAKVKKIFGWGDFYSNIKTVALNLLVTGKIVDHGNGTFSVHFQHNATGQGNISISLVPPSKAVEFHQEQQIFIEAKASKIFNCRMEWEKVERGRRTSLCTHDPAKICSRDHAQSSATWSCSQPFKVVCVYIAFYSTDYRLVQKVCPDYNYHSDTPYYPSG
- percentage of EdU-negative [1, 5]: 28.1 ± 0.43%
- percentage of EdU-negative ([1]; protein concentration 0.225 µM): 31.8 ± 2.5%
- percentage of EdU-negative [2, 5]: 6.5 ± 0.97%
- percentage of EdU-negative ([2]; protein concentration 0.225 µM): 6.09 ± 1.7%

Substance: MAQTNSFFMLISSLMFLSLSQGQESQTELPNPRISCPEGTNAYRSYCYYFNEDPETWVDADLYCQNMNSGNLVSVLTQAEGAFVASLIKESSTDDSNVWIGLHDPKKNRRWHWSSGSLVSYKSWDTGSPSSANAGYCASLTSCSGFKKWKDESCEKKFSFVCKFKN
- percentage of EdU-negative [1, 23]: 27 ± 1.8%
- percentage of EdU-negative [1, 24]: 24.6 ± 0.83%
- percentage of EdU-negative [2, 23]: 5.51 ± 1.2%
- percentage of EdU-negative [2, 24]: 5.35 ± 1.6%
